# Laboratory results: US20250043004A1 (Janssen / Centocor, published 2025)
# B1: VB28B40 (bispecific antibody, human IgG1, kappa, L234A L235A)
# scFv: DIQMTQSPSSLSASVGDRVTITCRSSQSLVHSSGNTYLHWYQQKPGKAPKFLIYKVSNRFSGVPSRFSGSGSGTDFTLTISSLQPEDFATYYCSQSTHVPFTFGQGTKLEIKGGSEGKSSGSGSESKSTGGSQVQLQESGPGLVKPSETLSLTCTVSGYSITSGYFWNWIRQPPGKGLEWIGYISYDGSNNYNPSLKSRVTISRDTSKNQFSLKLSSVTAADTAVYYCASPSPGTGYAVDYWGQGTLVTVSSEPKSSDKTHTCPPCPAPEAAGGPSVFLFPPKPKDTLMISRTPEVTCVVVSVSHEDPEVKFNWYVDGVEVHNAKTKPREEQYNSTYRVVSVLTVLHQDWLNGKEYKCKVSNKALPAPIEKTISKAKGQPREPQVYTLPPSREEMTKNQVSLWCLVKGFYPSDIAVEWESNGQPENNYKTTPPVLDSDGSFFLYSKLTVDKSRWQQGNVFSCSVMHEALHNHYTQKSLSLSPGK
# heavy: not shown
# light: not shown
# notes: Vβ17 × null × BCMA, human IgG1; not used; also called Vβ28B40
# B2: VB28B7 (bispecific antibody)
# heavy 1: not shown
# light 1: DIQMTQSPASLSASVGETVTITCGASENIYGSLNWYQRKQGKSPQLLIYGATNLADGMSSRFSGSGSGRQFSLKISSLHPDDVATYYCQNLLSTPYTFGGGTKLELKRTVAAPSVFIFPPSDEQLKSGTASVVCLLNNFYPREAKVQWKVDNALQSGNSQESVTEQDSKDSTYSLSSTLTLSKADYEKHKVYACEVTHQGLSSPVTKSFNRGEC
# heavy 2: not shown
# light 2: B2 light 1
# notes: also called Vβ28B7; C28B19 × Null × BCMB519
# B3: VB28B38 (bispecific antibody, human IgG1, kappa, L234A L235A)
# scFv: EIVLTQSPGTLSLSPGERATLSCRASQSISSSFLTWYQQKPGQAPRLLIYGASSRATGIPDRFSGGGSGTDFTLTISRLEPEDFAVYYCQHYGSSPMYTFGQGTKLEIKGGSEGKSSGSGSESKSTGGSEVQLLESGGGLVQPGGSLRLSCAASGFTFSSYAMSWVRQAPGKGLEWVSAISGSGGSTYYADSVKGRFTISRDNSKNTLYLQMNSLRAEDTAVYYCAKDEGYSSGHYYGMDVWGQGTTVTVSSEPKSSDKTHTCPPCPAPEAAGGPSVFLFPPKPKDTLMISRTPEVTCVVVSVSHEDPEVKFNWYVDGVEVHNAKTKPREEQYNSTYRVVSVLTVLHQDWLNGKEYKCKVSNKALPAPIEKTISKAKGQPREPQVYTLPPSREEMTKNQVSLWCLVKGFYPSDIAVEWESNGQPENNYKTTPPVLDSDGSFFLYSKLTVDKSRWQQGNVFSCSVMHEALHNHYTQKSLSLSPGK
# heavy: QVQLQQPGSELVRPGASVKLSCKASGYTFTSYWMHWVKQRHGQGLEWIGNIYPGSGRTNYDEKFKSKGTLTVDTSSRTAYMHLSSLTSEDSAVYYCTREHYGSNSHPMDYWGQGTSVTVSSASTKGPSVFPLAPSSKSTSGGTAALGCLVKDYFPEPVTVSWNSGALTSGVHTFPAVLQSSGLYSLSSVVTVPSSSLGTQTYICNVNHKPSNTKVDKKVEPKSCDKTHTCPPCPAPEAAGGPSVFLFPPKPKDTLMISRTPEVTCVVVSVSHEDPEVKFNWYVDGVEVHNAKTKPREEQYNSTYRVVSVLTVLHQDWLNGKEYKCKVSNKALPAPIEKTISKAKGQPREPQVYTLPPSREEMTKNQVSLSCAVKGFYPSDIAVEWESNGQPENNYKTTPPVLDSDGSFFLVSKLTVDKSRWQQGNVFSCSVMHEALHNRFTQKSLSLSPGK
# light: B2 light 1
# notes: BCMA × CD28, human IgG1; also called Vβ28B38
# B4: VB28B31 (bispecific antibody, human IgG1, kappa, L234A L235A)
# scFv: not shown
# heavy: B3 heavy
# light: B2 light 1
# notes: PSMA × CD28, human IgG1; also called Vβ28B31
# B5: B17B619 (bispecific antibody, human IgG1)
# heavy: QVQLQESGPGLVKPSETLSLTCTVSGYSITSGYFWNWIRQPPGKGLEWIGYISYDGSNNYNPSLKSRVTISRDTSKNQFSLKLSSVTAADTAVYYCASPSPGTGYAVDYWGQGTLVTVSSASTKGPSVFPLAPSSKSTSGGTAALGCLVKDYFPEPVTVSWNSGALTSGVHTFPAVLQSSGLYSLSSVVTVPSSSLGTQTYICNVNHKPSNTKVDKKVEPKSCDKTHTCPPCPAPEAAGGPSVFLFPPKPKDTLMISRTPEVTCVVVSVSHEDPEVKFNWYVDGVEVHNAKTKPREEQYNSTYRVVSVLTVLHQDWLNGKEYKCKVSNKALPAPIEKTISKAKGQPREPQVYVYPPSREEMTKNQVSLTCLVKGFYPSDIAVEWESNGQPENNYKTTPPVLDSDGSFALVSKLTVDKSRWQQGNVFSCSVMHEALHNRFTQKSLSLSPG
# light: DIQMTQSPSSLSASVGDRVTITCRSSQSLVHSSGNTYLHWYQQKPGKAPKFLIYKVSNRFSGVPSRFSGSGSGTDFTLTISSLQPEDFATYYCSQSTHVPFTFGQGTKLEIKRTVAAPSVFIFPPSDEQLKSGTASVVCLLNNFYPREAKVQWKVDNALQSGNSQESVTEQDSKDSTYSLSSTLTLSKADYEKHKVYACEVTHQGLSSPVTKSFNRGEC
# scFv-Fc: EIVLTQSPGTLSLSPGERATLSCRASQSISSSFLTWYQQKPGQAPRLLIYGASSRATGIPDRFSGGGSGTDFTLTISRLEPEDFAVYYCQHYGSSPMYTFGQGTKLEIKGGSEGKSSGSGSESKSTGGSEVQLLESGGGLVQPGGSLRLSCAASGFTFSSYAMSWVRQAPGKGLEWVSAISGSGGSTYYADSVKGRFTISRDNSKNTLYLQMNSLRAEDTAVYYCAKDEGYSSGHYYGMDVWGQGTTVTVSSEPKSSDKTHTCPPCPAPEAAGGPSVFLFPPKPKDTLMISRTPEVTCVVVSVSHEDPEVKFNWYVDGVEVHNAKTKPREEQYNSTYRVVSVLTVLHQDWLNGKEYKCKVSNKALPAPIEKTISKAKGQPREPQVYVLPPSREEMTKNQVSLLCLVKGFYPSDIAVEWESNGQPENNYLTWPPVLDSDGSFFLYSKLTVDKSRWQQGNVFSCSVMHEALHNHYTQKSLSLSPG
# notes: Human IgG1; also called Vβ17-Fab×BCMA-ScFv; Vb17-B17B21-N33S-Fab-RF × BCMB519-LH-scFv; copies: 1 + 1 + 1
# B6: VB28B33 (bispecific antibody)
# scFv: not shown
# heavy: B3 heavy
# light: DIQMTQSPSSLSASVGDRVTITCRSSQSLVHSSGNTYLHWYQQKPGKAPKFLIYKVSNRFSGVPSRFSGSGSGTDFTLTISSLQPEDFATYYCSQSTHVPFTFGQGTKLEIKGGSEGKSSGSGSESKSTGGSQVQLQESGPGLVKPSETLSLTCTVSGYSITSGYFWNWIRQPPGKGLEWIGYISYDGSNNYNPSLKSRVTISRDTSKNQFSLKLSSVTAADTAVYYCASPSPGTGYAVDYWGQGTLVTVSSGGSEGKSSGSGSESKSTGGSDIQMTQSPASLSASVGETVTITCGASENIYGSLNWYQRKQGKSPQLLIYGATNLADGMSSRFSGSGSGRQFSLKISSLHPDDVATYYCQNLLSTPYTFGGGTKLELKRTVAAPSVFIFPPSDEQLKSGTASVVCLLNNFYPREAKVQWKVDNALQSGNSQESVTEQDSKDSTYSLSSTLTLSKADYEKHKVYACEVTHQGLSSPVTKSFNRGEC
# notes: Null × CD28 × Vβ17, human IgG1; also called Vβ28B33
# B7: VB28B36 (bispecific antibody)
# scFv: not shown
# heavy: B3 heavy
# light: not shown
# notes: Null × CD28 × BCMA, human IgG1; also called Vβ28B36
# Columns and labels:
# [1] = target: T1, T cell receptor Vβ17 on human T cells (human); assay: flow cytometry, human pan T cells, donor 2; antibody has no CD28 arm
# T1 construct: whole, on cells; Vβ17+ fraction (about 5%) of human pan T cells, αβ-enriched T cells or M1-stimulated T cells; also called TCR Vβ17; Vb17
# T1 sequence (A0A075B6N1 22-114): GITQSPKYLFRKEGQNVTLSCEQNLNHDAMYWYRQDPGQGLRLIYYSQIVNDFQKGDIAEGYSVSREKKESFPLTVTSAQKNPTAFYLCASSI
# BCMA [2] = target: T2, BCMA (human, UniProt Q02223 1-184); assay: flow cytometry, H929 cells; antibody has no CD28 arm
# T2 construct: whole, on cells; On NCI-H929 myeloma cells, which also carry CD28; also called B-cell maturation antigen; TNFRSF17
# T2 sequence (looked up): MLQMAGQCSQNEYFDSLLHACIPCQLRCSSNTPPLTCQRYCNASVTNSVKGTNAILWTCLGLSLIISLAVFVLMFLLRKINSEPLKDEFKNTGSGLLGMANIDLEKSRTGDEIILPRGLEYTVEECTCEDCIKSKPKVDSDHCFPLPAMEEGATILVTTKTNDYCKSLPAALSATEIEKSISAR
# [3] = target: T1, T cell receptor Vβ17 on human T cells; assay: flow cytometry, human pan T cells, donor 1; antibody has no CD28 arm
# BCMA [4] = target: T2, BCMA; assay: flow cytometry, H929 cells (BCMA+, CD28+); whole-cell EC50, antibody has BCMA and CD28 arms
# Experimental: (§1) Post Pan T cell isolation. 0.1×10⁶ cells were seeded per well of a 96 well V-bottom plate. Cells were stained with the fixable violet live/dead stain (L34955, Thermofisher) for 20 mins on ice in dark according to the manufacturer's protocol. Post staining cells were washed with FACS buffer (PBS+2% FBS) by spinning at 1500 rpm for 5 mins. Supernatant was discarded and cells were suspended in 100 μl the respective antibody dilutions with a starting concentration of 5 g/ml and 3-fold serial dilutions. Antibody dilutions were prepared in FACS buffer. Cells were incubated with the antibody dilutions for 30 mins at 37° C. At the end of the incubation period, cells were washed twice with FACS buffer as above followed by staining with PE conjugated Goat polyclonal antibody to human IgG (ab98596, Abcam) at a 1:50 dilution in FACS buffer. Cells were incubated with the secondary antibody for 30 mins on ice. At the end of incubation period the cells were washed with FACS buffer as above. […] Cells were pelleted and resuspended in FACS buffer for acquisition on the NOVOCYTE flow cytometer (ACEA Biosciences). For binding assays using the H929 cells, 0.1×10⁶ H929 cells were seeded per well of a 96 well V-bottom plate and stained as above. Samples were analyzed by gating on the live cells and percentage binding was obtained by subtracting the background fluorescence from the secondary only control.
# CD28 [5] = target: T3, CD28 (human, UniProt P10747 19-220); assay: as above
# T3 construct: whole, on cells; On human pan T cells and on H929 myeloma cells; the assay field says which; also called Cluster of Differentiation 28
# Experimental: as §1
# CD28 [6] = target: T3, CD28; assay: flow cytometry, human pan T cells
# Experimental: Post Pan T cell isolation. 0.1×10⁶ cells were seeded per well of a 96 well V-bottom plate. Cells were stained with the fixable violet live/dead stain (L34955, Thermofisher) for 20 mins on ice in dark according to the manufacturer's protocol. Post staining cells were washed with FACS buffer (PBS+2% FBS) by spinning at 1500 rpm for 5 mins. Supernatant was discarded and cells were suspended in 100 μl the respective antibody dilutions with a starting concentration of 5 g/ml and 3-fold serial dilutions. Antibody dilutions were prepared in FACS buffer. Cells were incubated with the antibody dilutions for 30 mins at 37° C. At the end of the incubation period, cells were washed twice with FACS buffer as above followed by staining with PE conjugated Goat polyclonal antibody to human IgG (ab98596, Abcam) at a 1:50 dilution in FACS buffer. Cells were incubated with the secondary antibody for 30 mins on ice. At the end of incubation period the cells were washed with FACS buffer as above. […] Cells were pelleted and resuspended in FACS buffer for acquisition on the NOVOCYTE flow cytometer (ACEA Biosciences). For binding assays using the H929 cells, 0.1×10⁶ H929 cells were seeded per well of a 96 well V-bottom plate and stained as above. Samples were analyzed by gating on the live cells and percentage binding was obtained by subtracting the background fluorescence from the secondary only control. […]
# CD28 [7] = target: T3, CD28; assay: flow cytometry, human pan T cells, donor 1
# BCMA [8] = target: T2, BCMA; assay: flow cytometry, H929 cells (BCMA+, CD28+); whole-cell EC50, antibody has BCMA and CD28 arms; remark: listed apart in the source
# CD28 [9] = target: T3, CD28; assay: as above; remark: listed apart in the source
# CD28 [10] = target: T3, CD28; assay: flow cytometry, human pan T cells, donor 2
# CD28 [11] = target: T3, CD28; assay: flow cytometry, human pan T cells, donor 2; remark: listed apart in the source
# Experimental: (§2) Binding assay. […] Post Pan T cell isolation. 0.1×10⁶ cells were seeded per well of a 96 well V-bottom plate. Cells were stained with the fixable violet live/dead stain (L34955, Thermofisher) for 20 mins on ice in dark according to the manufacturer's protocol. Post staining cells were washed with FACS buffer (PBS+2% FBS) by spinning at 1500 rpm for 5 mins. Supernatant was discarded and cells were suspended in 100 μl the respective antibody dilutions with a starting concentration of 5 g/ml and 3-fold serial dilutions. Antibody dilutions were prepared in FACS buffer. Cells were incubated with the antibody dilutions for 30 mins at 37° C. At the end of the incubation period, cells were washed twice with FACS buffer as above followed by staining with PE conjugated Goat polyclonal antibody to human IgG (ab98596, Abcam) at a 1:50 dilution in FACS buffer. Cells were incubated with the secondary antibody for 30 mins on ice. At the end of incubation period the cells were washed with FACS buffer as above. […] Cells were pelleted and resuspended in FACS buffer for acquisition on the NOVOCYTE flow cytometer (ACEA Biosciences). […] Samples were analyzed by gating on the live cells and percentage binding was obtained by subtracting the background fluorescence from the secondary only control.
# PSMA [12] = target: T4, PSMA (human, UniProt Q04609 1-750); assay: flow cytometry, C4-2B cells
# T4 construct: whole, on cells; On LnCaP and C4-2B cells; also called prostate-specific membrane antigen
# T4 sequence (Q04609 whole entry): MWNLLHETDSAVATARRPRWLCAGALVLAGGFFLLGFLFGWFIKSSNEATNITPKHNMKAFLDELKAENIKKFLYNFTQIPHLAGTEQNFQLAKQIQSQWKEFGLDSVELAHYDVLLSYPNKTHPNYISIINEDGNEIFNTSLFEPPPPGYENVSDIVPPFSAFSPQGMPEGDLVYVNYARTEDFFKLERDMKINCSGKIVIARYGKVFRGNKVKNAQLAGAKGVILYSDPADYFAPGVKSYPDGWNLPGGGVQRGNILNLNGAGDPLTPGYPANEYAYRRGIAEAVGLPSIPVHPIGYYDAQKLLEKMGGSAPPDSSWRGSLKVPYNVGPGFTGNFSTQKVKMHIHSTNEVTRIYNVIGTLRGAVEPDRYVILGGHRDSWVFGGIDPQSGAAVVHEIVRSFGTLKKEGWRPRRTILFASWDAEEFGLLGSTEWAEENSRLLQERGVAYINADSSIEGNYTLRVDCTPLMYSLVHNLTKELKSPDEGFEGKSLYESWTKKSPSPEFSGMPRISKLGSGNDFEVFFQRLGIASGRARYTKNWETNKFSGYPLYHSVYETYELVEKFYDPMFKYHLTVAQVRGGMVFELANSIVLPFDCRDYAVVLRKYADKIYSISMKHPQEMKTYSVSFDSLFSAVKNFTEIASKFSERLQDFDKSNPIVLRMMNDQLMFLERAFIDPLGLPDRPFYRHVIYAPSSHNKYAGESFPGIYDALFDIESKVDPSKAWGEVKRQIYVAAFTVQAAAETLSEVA
# PSMA [13] = target: T4, PSMA; assay: flow cytometry, LnCaP cells
# CD28 [14] = target: T3, CD28; assay: flow cytometry, human pan T cells, donor 1; remark: listed apart in the source
# Experimental: as §2
# CD28 [15] = target: T3, CD28; assay: flow cytometry, H929 cells; antibody has no BCMA arm
binder,measurement,setting,value
B1,EC50,[1],1.21 µg/mL
same,EC50,BCMA [2],0.121 µg/mL
same,EC50,[3],1.12 µg/mL
B2,EC50,BCMA [4],0.1 µg/mL
same,EC50,CD28 [5],0.1 µg/mL
same,EC50,CD28 [6],0.06 µg/mL
B3,EC50,CD28 [7],1.27 µg/mL
same,EC50,BCMA [8],< 0.0046 µg/mL
same,EC50,CD28 [9],< 0.0046 µg/mL
same,EC50,CD28 [10],1.08 µg/mL
B4,EC50,CD28 [11],0.95 µg/mL
same,EC50,PSMA [12],1.22 µg/mL
same,EC50,PSMA [13],0.15 µg/mL
same,EC50,CD28 [14],1.29 µg/mL
B5,EC50,[1],0.124 µg/mL
same,EC50,BCMA [2],0.122 µg/mL
same,EC50,[3],0.159 µg/mL
B6,EC50,CD28 [15],1.4 µg/mL
same,EC50,CD28 [10],> 10 µg/mL
same,EC50,CD28 [11],> 10 µg/mL
B7,EC50,BCMA [8],< 0.0046 µg/mL
same,EC50,CD28 [9],< 0.0046 µg/mL
